Values quoted from earlier work, collected in PMC11939966.

Target: Tristetraprolin (TTP) (Homo sapiens) (UniProt P26651)
Assay: ITC

Chain of UniProt P26651 (P26651 whole entry): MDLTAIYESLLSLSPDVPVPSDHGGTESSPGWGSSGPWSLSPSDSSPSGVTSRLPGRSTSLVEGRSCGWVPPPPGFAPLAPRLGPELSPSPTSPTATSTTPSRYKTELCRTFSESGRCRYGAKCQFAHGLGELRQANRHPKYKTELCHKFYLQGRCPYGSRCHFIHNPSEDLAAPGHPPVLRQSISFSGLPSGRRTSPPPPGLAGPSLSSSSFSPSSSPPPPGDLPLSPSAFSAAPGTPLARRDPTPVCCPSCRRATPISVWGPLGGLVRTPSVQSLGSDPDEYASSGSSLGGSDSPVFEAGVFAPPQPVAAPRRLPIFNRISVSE

- Kd: 2000 nM
Substance: CNOT1 800-999 (from UniProt A5YKK6)
